The source of these data is patent US20230383269A1 (DSM AUSTRIA, published 2023).

The chains are these.
B1: alpha/beta hydrolase variant of SEQ ID NO: 10 (R155K, N167T, S174C, V175A) (enzyme)
chain: MTDQSPETRDIFVPHAFEEQQVDLGEVVMNYVEAGSADHPALLLLPEQTGSWWSYEPVIGLLAESFHVFAVDIRGQGRSTWTPKRYSLDNFGNDLVRFISLVVKRPVIVSGNSSGGVLAAWLSAYAMPGQIRAALCEDTPFFASELVPAHGHSVKQAAGPAFELYRTFLGDQWCAADWDGFAAAAKASPSKIMSLFPSSDEPPQNLKEYDPEWARAFFEGTVALHCPHDLMLSQVKTPILITHHARAVDPHSGDLLGALSDFQAERAQAIIESAGVPVEYASFPDALHMMHQFEPERFAEVLTSWVARLPADTPGAHHHHHH
notes: homo-tetramer; also called zearalenone-cleaving polypeptide
B2: alpha/beta hydrolase variant of SEQ ID NO: 13 (N167T, S174C, F218Y) (enzyme)
chain: B1 chain with K155R, A175V, F218Y
notes: as for B1
B3: alpha/beta hydrolase variant of SEQ ID NO: 28 (N167T, F168Y, S174C, D179E, A182C, A183R, K186R, A187R, F218Y L230R) (enzyme)
chain: B1 chain with K155R, F168Y, A175V, D179E, A182C, A183R, K186R, A187R, F218Y, L230R
notes: as for B1
B4: alpha/beta hydrolase variant of SEQ ID NO: 3 (N167T) (enzyme)
chain: B1 chain with K155R, C174S, A175V
notes: as for B1
B5: alpha/beta hydrolase variant of SEQ ID NO: 8 (N167T, S174T) (enzyme)
chain: B1 chain with K155R, C174T, A175V
notes: as for B1
B6: alpha/beta hydrolase variant of SEQ ID NO: 4 (N167S) (enzyme)
chain: B1 chain with K155R, T167S, C174S, A175V
notes: as for B1
B7: alpha/beta hydrolase variant of SEQ ID NO: 2 (N167T, F168Y, S174C, F218Y) (enzyme)
chain: B1 chain with K155R, F168Y, A175V, F218Y
notes: as for B1
B8: alpha/beta hydrolase variant of SEQ ID NO: 5 (N167A) (enzyme)
chain: B1 chain with K155R, T167A, C174S, A175V
notes: as for B1
B9: alpha/beta hydrolase variant of SEQ ID NO: 15 (N167T, F168Y, S174C, D179E, A182C, A183R, K186R, A187R, F218Y) (enzyme)
chain: B1 chain with K155R, F168Y, A175V, D179E, A182C, A183R, K186R, A187R, F218Y
notes: as for B1
B10: alpha/beta hydrolase variant of SEQ ID NO: 19 (V28T, N167T, F168Y, S174C, D179E, A182C, A183R, K186R, A187R, F218Y) (enzyme)
chain: B1 chain with V28T, K155R, F168Y, A175V, D179E, A182C, A183R, K186R, A187R, F218Y
notes: as for B1
B11: alpha/beta hydrolase variant of SEQ ID NO: 7 (N167L) (enzyme)
chain: B1 chain with K155R, T167L, C174S, A175V
notes: as for B1
B12: alpha/beta hydrolase variant of SEQ ID NO: 20 (H39R, N167T, F168Y, S174C, D179E, A182C, A183R, K186R, A187R, F218Y) (enzyme)
chain: B1 chain with H39R, K155R, F168Y, A175V, D179E, A182C, A183R, K186R, A187R, F218Y
notes: as for B1
B13: alpha/beta hydrolase variant of SEQ ID NO: 12 (N167S, S174C) (enzyme)
chain: B1 chain with K155R, T167S, A175V
notes: as for B1
B14: alpha/beta hydrolase variant of SEQ ID NO: 14 (N167T, F168Y, S174C) (enzyme)
chain: B1 chain with K155R, F168Y, A175V
notes: as for B1
B15: alpha/beta hydrolase variant of SEQ ID NO: 24 (F69Y, N167T, F168Y, S174C, D179E, A182C, A183R, K186R, A187R, F218Y) (enzyme)
chain: B1 chain with F69Y, K155R, F168Y, A175V, D179E, A182C, A183R, K186R, A187R, F218Y
notes: as for B1
B16: alpha/beta hydrolase variant of SEQ ID NO: 29 (N167T, F168Y, S174C, D179E, A182C, A183R, K186R, A187R, F218Y, A245V) (enzyme)
chain: B1 chain with K155R, F168Y, A175V, D179E, A182C, A183R, K186R, A187R, F218Y, A245V
notes: as for B1
B17: alpha/beta hydrolase variant of SEQ ID NO: 25 (A126S, N167T, F168Y, S174C, D179E, A182C, A183R, K186R, A187R, F218Y) (enzyme)
chain: B1 chain with A126S, K155R, F168Y, A175V, D179E, A182C, A183R, K186R, A187R, F218Y
notes: as for B1
B18: alpha/beta hydrolase variant of SEQ ID NO: 6 (N167C) (enzyme)
chain: B1 chain with K155R, T167C, C174S, A175V
notes: as for B1
B19: alpha/beta hydrolase variant of SEQ ID NO: 26 (T139P N167T, F168Y, S174C, D179E, A182C, A183R, K186R, A187R, F218Y) (enzyme)
chain: B1 chain with T139P, K155R, F168Y, A175V, D179E, A182C, A183R, K186R, A187R, F218Y
notes: as for B1
B20: alpha/beta hydrolase variant of SEQ ID NO: 27 (N167T, F168Y, S174C, D179E, A182C, A183R, K186R, A187R, F218Y, H225S) (enzyme)
chain: B1 chain with K155R, F168Y, A175V, D179E, A182C, A183R, K186R, A187R, F218Y, H225S
notes: as for B1
B21: alpha/beta hydrolase variant of SEQ ID NO: 17 (D10N, N167T, F168Y, S174C, D179E, A182C, A183R, K186R, A187R, F218Y) (enzyme)
chain: B1 chain with D10N, K155R, F168Y, A175V, D179E, A182C, A183R, K186R, A187R, F218Y
notes: as for B1
B22: alpha/beta hydrolase variant of SEQ ID NO: 33 (N167T, F168Y, S174C, D179E, A182C, A183R, K186R, A187R, F218Y, S293S) (enzyme)
chain: B1 chain with K155R, F168Y, A175V, D179E, A182C, A183R, K186R, A187R, F218Y, F293S
notes: as for B1
B23: alpha/beta hydrolase variant of SEQ ID NO: 9 (N167T, S174C) (enzyme)
chain: B1 chain with K155R, A175V
notes: as for B1
B24: alpha/beta hydrolase variant of SEQ ID NO: 34 (N167T, F168Y, S174C, D179E, A182C, A183R, K186R, A187R, F218Y, S304R) (enzyme)
chain: B1 chain with K155R, F168Y, A175V, D179E, A182C, A183R, K186R, A187R, F218Y, S304R
notes: as for B1
B25: alpha/beta hydrolase variant of SEQ ID NO: 31 (N167T, F168Y, S174C, D179E, A182C, A183R, K186R, A187R, F218Y, A281E) (enzyme)
chain: B1 chain with K155R, F168Y, A175V, D179E, A182C, A183R, K186R, A187R, F218Y, A281E
notes: as for B1
B26: alpha/beta hydrolase variant of SEQ ID NO: 30 (N167T, F168Y, S174C, D179E, A182C, A183R, K186R, A187R, F218Y, H251E) (enzyme)
chain: B1 chain with K155R, F168Y, A175V, D179E, A182C, A183R, K186R, A187R, F218Y, H251E
notes: as for B1
B27: alpha/beta hydrolase variant of SEQ ID NO: 11 (R155K, N167T, S174C, V175T) (enzyme)
chain: B1 chain with A175T
notes: as for B1
B28: alpha/beta hydrolase variant of SEQ ID NO: 16 (N167T, F168Y, S174C, D179E, A182C, A183R, K186R, A187R, F218Y, Q268L, V306I) (enzyme)
chain: MTDQSPETRDIFVPHAFEEQQVDLGEVVMNYVEAGSADHPALLLLPEQTGSWWSYEPVIGLLAESFHVFAVDIRGQGRSTWTPKRYSLDNFGNDLVRFISLVVKRPVIVSGNSSGGVLAAWLSAYAMPGQIRAALCEDTPFFASELVPAHGHSVRQAAGPAFELYRTYLGDQWCVADWEGFCRAARRSPSKIMSLFPSSDEPPQNLKEYDPEWARAFYEGTVALHCPHDLMLSQVKTPILITHHARAVDPHSGDLLGALSDFQAERALAIIESAGVPVEYASFPDALHMMHQFEPERFAEVLTSWIARLPADTPGAHHHHHH
notes: as for B1
B29: alpha/beta hydrolase variant of SEQ ID NO: 21 (E47S, G50E, N167T, F168Y, S174C, D179E, A182C, A183R, K186R, A187R, F218Y) (enzyme)
chain: B28 chain with E47S, G50E, L268Q, I306V
notes: as for B1
B30: alpha/beta hydrolase variant of SEQ ID NO: 22 (P57E, V58A, I59M, N167T, F168Y, S174C, D179E, A182C, A183R, K186R, A187R, F218Y) (enzyme)
chain: B28 chain with P57E, V58A, I59M, L268Q, I306V
notes: as for B1
B31: alpha/beta hydrolase variant of SEQ ID NO: 18 (F17Y, I59M, N167T, F168Y, S174C, D179E, A182C, A183R, K186R, A187R, F218Y) (enzyme)
chain: B28 chain with F17Y, I59M, L268Q, I306V
notes: as for B1
B32: alpha/beta hydrolase variant of SEQ ID NO: 32 (N167T, F168Y, S174C, D179E, A182C, A183R, K186R, A187R, F218Y, L287T, M289S) (enzyme)
chain: B28 chain with L268Q, L287T, M289S, I306V
notes: as for B1
B33: alpha/beta hydrolase variant of SEQ ID NO: 23 (A63S, S65H, N167T, F168Y, S174C, D179E, A182C, A183R, K186R, A187R, F218Y) (enzyme)
chain: B28 chain with A63S, S65H, L268Q, I306V
notes: as for B1

Where a chain is given by its changes, count along the chain named. Numbers in names are those of the source.

The series deals with the molecule itself. The series can be described thus: Blue-Native-PAGE, oligomeric conformation (self-association of identical chains). The source says: Comparison of the native molecular weight (oligomeric conformation) between single purified zearalenone-cleaving polypeptides was done via Blue-Native-PAGE. Dilutions of the elutes were supplied with not denaturating loading dye (e.g. 2× loading dye: 0.126 M tris(hydroxymethyl)aminomethan/hydrochloric acid pH 6.8, 20.0% glycerol, 4.0% Coomassie Blue G-250) and separated on a 4-15% polyacrylamid gel under native conditions (e.g. Mini-PROTEAN® Tetra Cell System, 1658004EDU+4-15% Mini-PROTEAN® TGX™ Precast Protein Gels, 4561083EDU, Bio-Rad Laboratories GmbH) (5× Anode Buffer: 0.125 M Tris(hydroxymethyl)aminomethane, 0.960 M Glycine, 1× Kathode Buffer: Anode Buffer+0.02% Coomassie Blue G250; 200 V, 40 minutes). The peptide bands were visualized by Coomassie staining. The oligomeric state of selected zearalenone-cleaving polypeptides was determined by size exclusion chromatography, SEC-MALS or X-Ray crystallography. Homo-dimers (e.g. SEQ ID NO. 1) migrated faster across the BN-PAGE gel matrix, while homo-tetramers (e.g. SEQ ID NO. 2-35) were retained in the gel matrix to a higher extent. The oligomeric conformation of the zearalenone-cleaving polypeptides was determined relatively to the migration of homo-dimeric and homo-tetrameric peptides.
Regarding B1, the binding result is on record as “binds”. The entry for B2 is “binds”; for B3 it is “binds”; for B4 it is “binds”. The entry for B5 is “binds”; for B6 it is “binds”. B7: the binding result is “binds”. Regarding B8, the binding result is recorded as “binds”.

Consider B9, for which the binding result was “binds”. Take B10: the binding result was “binds”. For B11, the binding result is “binds”. The entry for B12 is “binds”; for B13 it is “binds”; for B14 it is “binds”. The entry for B15 is “binds”; for B16 it is “binds”; for B17 it is “binds”. Under B18 stands “binds”. As to B19, the binding result is reported as “binds”. Under B20 stands “binds”.

Consider B21, for which the binding result was “binds”.

With B22, the binding result was “binds”. The entry for B23 is “binds”; for B24 it is “binds”; for B25 it is “binds”.

Regarding B26, the binding result was “binds”.

Take B27: the binding result was “binds”. On to B28, for which the binding result was “binds”.

On to B29, for which the binding result is recorded as “binds”. Turning to B30, the binding result is “binds”. Under B31 stands “binds”.

Regarding B32, the binding result is recorded as “binds”. With B33, the binding result is “binds”.
